Results reported in paper PMC6629437 (Cell, 2019).

Tests used:
[1] = target: H7 HA of A/Netherlands/219/2003, soluble trimer (Influenza A virus …, UniProt Q6VMK1, strain); experiment: ELISA
[2] = target: H5 HA of A/Indonesia/5/2005 (Influenza A virus A/Indonesia/5/2005 …, UniProt A5A5L7, strain); experiment: ELISA

Binder | binding result [1] | binding result [2]
rFluA-20 IgG (recombinant FluA-20 IgG) (antibody, V domains shown) VH: QVQLEESGPGLVKPSETLSLTCSVSGVSVTSDIYYWTWIRQPPGKGLEWIGYIFYNGDTNYNPSLKSRVTMSIDTSKNEFSLRLTSVTAADTAVYFCARGTEDLGYCSSGSCPNHWGQGTLVTVSS VL: DIVMTQSPSSLSASIGDRVTITCRPSQNIRSFLNWFQHKPGKAPKLLIYAASNLQSGVPSRFSGSGSGTEFTLTIRSLQPEDFATYYCQQSYNTPPTFGQGTKVEIK | binds | –
rFluA-20 IgG Y49A (L) (antibody, V domains shown) VH: QVQLEESGPGLVKPSETLSLTCSVSGVSVTSDIYYWTWIRQPPGKGLEWIGYIFYNGDTNYNPSLKSRVTMSIDTSKNEFSLRLTSVTAADTAVYFCARGTEDLGYCSSGSCPNHWGQGTLVTVSS VL: DIVMTQSPSSLSASIGDRVTITCRPSQNIRSFLNWFQHKPGKAPKLLIAAASNLQSGVPSRFSGSGSGTEFTLTIRSLQPEDFATYYCQQSYNTPPTFGQGTKVEIK | – | no binding (tested: 10 μg/mL)
rFluA-20 IgG D98A (H) (antibody, V domains shown) VH: QVQLEESGPGLVKPSETLSLTCSVSGVSVTSDIYYWTWIRQPPGKGLEWIGYIFYNGDTNYNPSLKSRVTMSIDTSKNEFSLRLTSVTAADTAVYFCARGTEALGYCSSGSCPNHWGQGTLVTVSS VL: DIVMTQSPSSLSASIGDRVTITCRPSQNIRSFLNWFQHKPGKAPKLLIYAASNLQSGVPSRFSGSGSGTEFTLTIRSLQPEDFATYYCQQSYNTPPTFGQGTKVEIK | – | no binding (tested: 10 μg/mL)
